IntAct's records for PubMed 21295698

Legend:
ogt1_human OGT [1] = molecular target: ogt1_human OGT (UniProt O15294)
ogt1_human OGT [2] = molecular target: ogt1_human OGT (UniProt O15294); remark: listed apart in the source

UniProt O15294, sequence (O15294 whole entry): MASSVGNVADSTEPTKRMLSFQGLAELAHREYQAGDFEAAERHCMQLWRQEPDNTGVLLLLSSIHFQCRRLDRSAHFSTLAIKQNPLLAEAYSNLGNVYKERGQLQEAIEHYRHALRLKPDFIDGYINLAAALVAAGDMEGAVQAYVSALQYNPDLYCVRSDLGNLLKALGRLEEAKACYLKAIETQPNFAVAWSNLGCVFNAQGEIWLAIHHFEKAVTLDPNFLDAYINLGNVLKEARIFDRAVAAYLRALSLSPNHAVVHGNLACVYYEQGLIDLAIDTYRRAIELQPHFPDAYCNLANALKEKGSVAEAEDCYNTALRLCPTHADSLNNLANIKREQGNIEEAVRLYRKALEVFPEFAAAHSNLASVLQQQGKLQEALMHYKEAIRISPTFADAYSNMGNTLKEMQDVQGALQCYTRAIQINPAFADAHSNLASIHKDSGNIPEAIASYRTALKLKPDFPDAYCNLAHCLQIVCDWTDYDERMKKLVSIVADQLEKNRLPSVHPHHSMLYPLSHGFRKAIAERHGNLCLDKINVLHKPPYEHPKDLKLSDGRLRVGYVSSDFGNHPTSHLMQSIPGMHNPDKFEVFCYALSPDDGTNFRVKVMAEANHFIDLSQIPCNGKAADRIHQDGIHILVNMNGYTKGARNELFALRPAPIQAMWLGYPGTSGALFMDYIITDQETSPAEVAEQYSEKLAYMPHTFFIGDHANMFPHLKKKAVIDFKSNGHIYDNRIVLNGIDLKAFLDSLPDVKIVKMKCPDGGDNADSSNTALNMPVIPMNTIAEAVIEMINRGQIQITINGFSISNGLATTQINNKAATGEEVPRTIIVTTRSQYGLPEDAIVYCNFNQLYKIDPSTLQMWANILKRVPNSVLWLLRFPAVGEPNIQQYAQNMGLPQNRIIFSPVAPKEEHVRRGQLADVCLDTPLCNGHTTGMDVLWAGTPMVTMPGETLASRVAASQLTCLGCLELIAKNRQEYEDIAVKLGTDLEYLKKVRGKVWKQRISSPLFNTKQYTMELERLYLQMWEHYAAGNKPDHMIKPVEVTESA

Substance | effect of a mutation on the interaction (ogt1_human OGT [1]) | effect of a mutation on the interaction (ogt1_human OGT [2])
Host cell factor 1 (Homo sapiens), P51610 C1080A | decreasing interaction | 
Host cell factor 1 (Homo sapiens), P51610 T1090A | disrupting interaction | 
Host cell factor 1 (Homo sapiens), P51610 T1087A | disrupting interaction | 
Host cell factor 1 (Homo sapiens), P51610 T1092A | disrupting interaction | 
Host cell factor 1 (Homo sapiens), P51610 T1082A | decreasing interaction | 
Host cell factor 1 (Homo sapiens), P51610 P1079A | decreasing interaction | 
Host cell factor 1 (Homo sapiens), P51610 E1081A | disrupting interaction | increasing interaction
Host cell factor 1 (Homo sapiens), P51610 N1077A | decreasing interaction | 
Host cell factor 1 (Homo sapiens), P51610 P1078A | decreasing interaction | 
Host cell factor 1 (Homo sapiens), P51610 C1075A | decreasing interaction | 
Host cell factor 1 (Homo sapiens), P51610 T1088A | disrupting interaction | 
Host cell factor 1 (Homo sapiens), P51610 H1083A | decreasing interaction | 
Host cell factor 1 (Homo sapiens), P51610 T1085A | decreasing interaction | 
